Test results: the supplement of paper PMC9170038

system: MS2 coat protein; assay: apparent KD of MS2 coat protein; higher = weaker reporter binding; details: Eterna round: R107; input ligand: theophylline 2 mM
Experimental: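 RNA-MaP round R107: designed RNA switches with theophylline, tryptophan, arginine or FMN aptamers are transcribed on-chip within common flanks. They are titrated with SNAP-549-labelled MS2 coat protein in RNA-MaP buffer (100 mM Tris pH 7.5, 80 mM KCl, 4 mM MgCl2), without ligand or with the indicated ligand. Median apparent KD per design.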

| Sequence | apparent KD of MS2 coat protein [nM] |
| --- | --- |
| ACGCGCAGCAGAAGGAGCGUCUUAAUUCUACAUGAGGAUCACCCAUGUUUACAUUGGAUAUGACAGGUAGGUCGCUGGUGUGCGA [#06 Same State - Arginine B] | 19.6 |
| GGUCUCUGGAGCGAUACCAGCUUGAGUGUACUGGCCAGGUACAUGAGGAUCACCCAUGUAAGCCCUUGGCAGCGCUCCAGAGACC [#1 Exclusion - Theophylline B Attempt #15 (HarryS)] | 44.7 |
| UGAUGGUUCGGAAGGAGCGUGUAAGAACAAGAACAUGAGGAUCACCCAUGUAUUAAUUUAACACAGGUAGGUCGCCGGGUUAUUG [11.J] | 22.2 |
| UAUCCACAUGAGGAUCACCCAUGUAGGGAAGGAGCGGUGAUUUCACCAGGUAGGUCGCCUUGCUGAGGGUUGCCGGUGGAAUCGU [Exclusion - Arginine A (Freestyle 33)] | 13.1 |
| ACAUUUAACUGAAGGAGCGUGAUAAACAUGAGGAUCACCCAUGUACCACAGAUUUUCAGAUCACAGGUAGGUCGCAGACUAAUGA [JR_ExcArginiB_Sub014] | 11.3 |
| GAUAUGGAAACAUGUCAGAUCCUUACCGGUCGAGGACCGGUACGGCCGCCACUCGAAAACGAGGAACAUGAGGAUCACCCAUGUA [Ex Tryptophan A 20] | 49.5 |
| UGCACUCAUGCGGCCGCCACUGUCGGCCGCCACUAAACAUGAGGAUCACCCAUGUAGGACCGGGACAGGACCGGGCAUGGGUGCU [TryBS - #DoubleAptamer 2] | 13.8 |
| AACAUGAGGAUCACCCAUGUCCUCGUGAUUCGAGGACCGGUACGGCCGCCACUCGGUCCUCGCGAGGAGGAGUCAAAGACUCCAA [Omei Trp A SS A v1] | 204 |
| UUAACGAGCUGAAGGAGCGCUCCUCAACAACAUGAGGAUCACCCAUGUACACAUAAUAGGGAGCAGGUAGGUCGCAGCAGGAUGG [ss-argB-?] | 17 |
| ACAUGAGGAUCACCCAUGUGCAGAACGGAUACCAGCGUGCUGGUACGCCCUUGGCAGCCGGACAUGAGGAUCACCCAUGUGUGGA [Exclusion Theophylline A GF28] | 164 |

same assay, conditions: Eterna round: R107; input ligand: tryptophan 2.4 mM

| Sequence | apparent KD of MS2 coat protein [nM] |
| --- | --- |
| AGACAUGUAAGAUAAAUGACUUAUACAGAUACCAGACUGUCUAAUGUCCCUUGGCAGCUGCAUAACAUGAGGAUCACCCAUGUAA [JR_ExcTheophyA_Sub010] | 26.9 |
| UCUUUCUAUUGUGAUACCAGACGUACAUGAGGAUCACCCAUGUUUCAUUCUUGUUUUAAAGUCCCUUGGCAGCACUAUUUGUUCG [JR_Nu_ExcTheophyB_Sub028] | 15.9 |
| UAUAUAUAACAUGAGGAUCACCCAUGUAAACGAGGACCGGUACGGCCGCCACUCGGCCGGCAAGGGAGAGGACGGGAAACCGUCG [ETA NP+V+V2 #26] | 24.4 |
| UACACAUGACAUGAUACCAGCCCAUGUGAACAUGAGGAUCACCCAUGUAUGAGGACAUGAGGCCCUUGGCAGCAUGUAUACAUGA [Same State Theophylline B 2] | 11.4 |
| UCGCGAUAGAGAAGGAGCGUCAACACCACUUAACAUGAGGAUCACCCAUGUGUUACUUUGUGACAGGUAGGUCGCUCUAGCGCUU [JR_Nu_ExcArginiB_Sub026] | 18.4 |
| GGAAACCAAAGCGAUACCAGCGUACAUGAAAAGAGCGAAAACAUGAGGAUCACCCAUGUACGCCCUUGGCAGCGCAAAACCAAGG | 33.3 |
| UGGGUACAUGAGGAUCACCCAUGUACUGAAGGAGCGAGAAUUAUCUCAGGUAGGUCGCAGACAUGAGGAUCACCCAUGUAGUGGG [Exclusion Arginine A GF 13] | 17.7 |
| CCUAUGCAGUCGGCCGCCACUGUACAUGAGGAUCACCCAUGUUCCAAAAUAAAAGGAACUGAAAUCAGGACCGGGACUGUAUAGG [Ex Tryptophan B 1] | 32.6 |
| AGCUCGCAUCCUCUAGCGUCAAAGACGCGUCGAGGACCGGUACGGCCGCCACUCGACUUGAGGAACACCCAAGUCCUAGCGAGCA [TrypAX 12 #SwitchBubble #AlternativeMS2 #MS2Late #CuTurnoff] | 290 |
| AAAUUAUCGGCGGCCGCCACUAGAGUUAGGCUUAUGUACUGGGUAACAUGAGGAUCACCCAUGUAUAGGACCGGGCCAUAAUAAA [Same State - Tryptophan B (Freestyle 4)] | 72.1 |
| UGAUACCAGUCGGCCGCCACUAUGCUAGAUACUAGCAAUAAAUGGGAACAUGAGGAUCACCCAUGUAGGACCGGGACUGGUAUCU | 64 |
| UUUGAUUAGAGAAGGAGCGUGAUAUUUAUAUAGUGUGUAUGUACAUGAGGAUCACCCAUGUCACAGGUAGGUCGCUCUGAUAAGG [JR_Nu_ExcArginiB_Sub030] | 16.1 |
| AUCCACAGCCGAAGGAGCGCAGUAGGAUGACAUGAGGAUCACCCAUGUGUGUGAUGUGGAUUGCAGGUAGGUCGCGGAGUGGAUU [Exclusion - Arginine B (Freestyle 9)] | 46.4 |
| UGUUAUGUGGGAAGGAGCGCAUACUUCACAUGAGGAUCACCCAUGUCAAGACGUGAGUCAGUGCAGGUAGGUCGCCUAGUUAAGA [Same State - Arginine B (Freestyle 17)] | 45 |
| AUUAUCGUAGGUUAAAGUUUAGAAACUGAAGGAGCGUGGUAUUACACAGGUAGGUCGCAGAUUUUACAUGAGGAUCACCCAUGUU [JR_ExcArginiA_Sub010] | 21.5 |
| CAUGAUAAGUUGGAUACCAGCAUAUGGAACAACAUGAGGAUCACCCAUGUCAAAUGACAUUGCCCUUGGCAGCCACCUACUGUCA [theeternabot_sameState_MS2_Theo_B_5] | 17.9 |
| CAUACUUUAGUAUGUUAUGUGGACAGUGAUACCAGAUACGAAAGUAUCCCUUGGCAGCACAACAUGAGGAUCACCCAUGUAUUUU [Theophylline A 4] | 21.5 |
| AUUUUCAUGGUCAUAUAUAUAUCUUCAGAUACCAGACUAUAUUAAGUCCCUUGGCAGCUGUUACAUGAGGAUCACCCAUGUUAUA [JR_ExcTheophyA_Sub013] | 78 |
| UUAAUCUUAGAAGAAAACUUUUAAGCAGAAGGAGCGUGAUAAAACACAGGUAGGUCGCUGAAGGGAACAUGAGGAUCACCCAUGU [AstrosSSArgA#18] | 23.1 |
| ACGCGCAGCAGAAGGAGCGUCUUAAUUCUACAUGAGGAUCACCCAUGUUUACAUUGGAUAUGACAGGUAGGUCGCUGGUGUGCGA [#06 Same State - Arginine B] | 15.6 |
| GGUCUCUGGAGCGAUACCAGCUUGAGUGUACUGGCCAGGUACAUGAGGAUCACCCAUGUAAGCCCUUGGCAGCGCUCCAGAGACC [#1 Exclusion - Theophylline B Attempt #15 (HarryS)] | 11 |
| UGAUGGUUCGGAAGGAGCGUGUAAGAACAAGAACAUGAGGAUCACCCAUGUAUUAAUUUAACACAGGUAGGUCGCCGGGUUAUUG [11.J] | 14.4 |
| UAUCCACAUGAGGAUCACCCAUGUAGGGAAGGAGCGGUGAUUUCACCAGGUAGGUCGCCUUGCUGAGGGUUGCCGGUGGAAUCGU [Exclusion - Arginine A (Freestyle 33)] | 16.2 |
| CAUGAAGUAACUGAUACCAGUGUACACAUGAGGAUCACCCAUGUGUUGGGUUUUGUUGUACACCCUUGGCAGCAGAAUCUUUAUG [AstrosExyTheB#8] | 51.2 |
| ACAUUUAACUGAAGGAGCGUGAUAAACAUGAGGAUCACCCAUGUACCACAGAUUUUCAGAUCACAGGUAGGUCGCAGACUAAUGA [JR_ExcArginiB_Sub014] | 11.5 |
| AAUAAGAGCUCGGAUACCAGCGAAAACAGGCACAUGAGGAUCACCCAUGUUAACGCACUGCGCCCUUGGCAGCCGCACGUGUGUC [theeternabot_sameState_MS2_Theo_B_39] | 22 |
| UGCACUCAUGCGGCCGCCACUGUCGGCCGCCACUAAACAUGAGGAUCACCCAUGUAGGACCGGGACAGGACCGGGCAUGGGUGCU [TryBS - #DoubleAptamer 2] | 9.97 |
| AACAUGAGGAUCACCCAUGUCCUCGUGAUUCGAGGACCGGUACGGCCGCCACUCGGUCCUCGCGAGGAGGAGUCAAAGACUCCAA [Omei Trp A SS A v1] | 137 |
| UUAACGAGCUGAAGGAGCGCUCCUCAACAACAUGAGGAUCACCCAUGUACACAUAAUAGGGAGCAGGUAGGUCGCAGCAGGAUGG [ss-argB-?] | 15 |
| ACAUGAGGAUCACCCAUGUGCAGAACGGAUACCAGCGUGCUGGUACGCCCUUGGCAGCCGGACAUGAGGAUCACCCAUGUGUGGA [Exclusion Theophylline A GF28] | 66 |
